Measured values published in article PMC7671685.
Where “and” joins values, the source holds several entries; their conditions need not be identical. Equal values may be shown once.

Target: proinsulin 2 (mouse (endogenous in MIN6))
Experiment: non-reducing SDS-PAGE of immunoprecipitates (disulfide-linked forms) + mass spectrometry of the excised band; MIN6 cells treated with 50 µM olanzapine; pulse-chase, immunoprecipitation with anti-insulin #8138, non-reducing SDS-PAGE and autoradiography; for mass spectrometry cells were lysed in 1% NP40 with 10 mM NEM and the HMP-1 band was excised

Question: Which stoichiometry N does the source give for proinsulin 2 (natural protein) here?
Answer: 2 and 3
